The values below come from the DeepSol protein solubility set.

This data set in a line: soluble on expression in E. coli; label from the status in PepcDB or PDB records.
As for “MDDPFASLEPLAVAPSGPEGVRAQFDQMEDIPPPRPRQPPPAQEDPVEIEVTEDGVARAFTEKYGGTLRFDHDAGRWYHWQEDHWQADTTSRAFEYCRRLARLASEGAKHSLLSTARKASFAGGVERLARADPAHAVTQEAWDRDPWLVACPGETVDLRTGRSAVPRPEDGITRRVAVAPAAQETCPTWWQFLEDATGADSSVMRFLQQWAGYSLTGITREHTLVFLYGDGGNGKSVFINTLTGLLGDYAATAGMETFTASKSDRHPTDLAMLAGARLVAASETEEGRAWAESRIKQMTGGDRITARFMRRDFFTYTPQFKLTLVGNHRPALANVKPVEPWALVVPAELETVAQQVLAEIAAAAVSDVNPFSGTLELIVEPGLTSATGWYLIGNPALHDGLAHAFLDGQSAPRIETRAGWNTLGMEFRLTWAVDAKFIGTASWFRNPGASGCPRCRPRNAQRQGVALLCLARRSEVLDRLEHHHHHH”, the “soluble on expression in E. coli” value is reported as “not soluble”. As for “MPLEEGVLIDCTLGLGGHSKALLSQKPHLKLIGIDKDKFAQEIAKERLKAFEGRYNLLSGGFAKRFKEALETHNKEIKGVLVDLGVSSLQLDDDNRGFNFHSHTLDMRMDLESELNAQKVINSYPIVALEKIFRDYGEIKEYKKIAHKIAERRAKKPFKNAKDLSEFLSSFSKNKKIHPATLVFQAVRIEVNSELEELKEFLQCARNLKGAILCVISFHSLEDALVKNAFKDYAKNCICDPSSFKCACSNNHALGEILTKKPITPSPEEIKNNRRSRSAKMRVFQFKPLEHHHHHH”, the entry is “not soluble”; as for “MSLNVDPNITKYMIKAKIVTDGVVEKPDVVGAIFGQTEGLLGDELDLRDLQKSGKIGRIEVEIDTKKGRTEGYVLIPSGLDQVESSILAAALETIDRIGPCKAKVEIESIEDVRINKRDRVIKRAEELYRKMGENGKSLSESIVQTVREEVEKKEIISYGEEHLPAGPAIADSDSIIVVEGRNDVLNLLRYGIKNTIAVQGTSVPKTVKELSKSRTVTLFVDGDHGGDLIIKEMLQVADVDFIARAPPGTEVEELTYKQIIKALKYKTPVEQYLETHGMIEELKEWSSRNTKELEERQGNELKNERPEKINENEESEKNVELKEGSVQKLETVPEFDPSSPESIKFKLKQLYESRELELFDGQSSVGKFPVSDAIEKIESMHGDLLITGGIISQRLLDIAYNIGVKAIYGFKIGNITKKPDDIKVVAWDHIEGHHHHHH”, “soluble”. Take “MGSDKIHHHHHHKQLVHEGYRVTGCKRSAEELSALTEVGIEAYPLQLGSEAPSAPDAQALSGLFQTDYLVVNIPPRLKRGNAAYLEELQQLIALTQGWQYQQIVFISTTGVYPAKDKVMTEADALAESSDSQVLLDAEALFQVLPHACIVRFAGLVGPKRHPGRFLAGKTDVSGANVAVNLVHLSDCVSAVSRILAATGSGLSVAPIYNLCAPTHPTKAEFYQAAAESLGLVAPEFNQQSMPSKVIQGDAIVTDLGFRYQYASPQDMLAAC”: the “soluble on expression in E. coli” value is “not soluble”. “MYAKSLNGDAFSNEAKQKAIELIKQDLGQIDLVVYSLASPVRKMPDTGELVRSALKPIGETYTSTAVDTNKDVIIEASVEPATEQEIADTVTVMGGQDWELWIQALEEAGVLAEGCKTVAYSYIGTELTWPIYWDGALGRAKMDLDRAATALNEKLAAKGGTANVAVLKSVVTQASSAIPVMPLYIAMVFKKMREQGVHEGCMEQIYRMFSQRLYKEDGSAPEVDDHNRLRLDDWELRDDIQQHCRDLWPQITTENLRELTDYDMYKEEFIKLFGFGIEGIDYDADVNPEVEFDVIDIE”: the “soluble on expression in E. coli” value is “not soluble”. Take “MQSTPKPFDIEQPSLRVFLPAPELATGRAVVACPGGGYSGLAVNHEGYDWAPYFNKQGIALIVLKYRMPKGDRTLPISDAEAAMKMVRDSADVWNLNPNDIGIMGSSAGGHLASTIATHAPEALRPNFQILFYPVITMDKSFTHMGSHDNLLGKDASADLEKEFSNEKQVTKETPRAFIVYSDDDKVVPPANGVNYYLALNKKGVPSVLHIYPTGGHGWGIREDFLEHHHHHH”: the “soluble on expression in E. coli” value is recorded as “not soluble”. As for “MADFARSLSITTPEEMIEKAKGETAYLPCKFTLSPEDQGPLDIEWLISPADNQKVDQVIILYSGDKIYDDYYPDLKGRVHFTSNDLKSGDASINVTNLQLSDIGTYQCKVKKAPGVANKKIHLVVLVK”, the “soluble on expression in E. coli” value was “soluble”.

In the case of “MNLSNLWQSCLLQLQDQVSASDLSTWLRPLQADVVADNHIVLYASNMFVKGWVETHYLAQIQQICQTLAQNPELRISLKEGVKPAPKIVESTPNTSLRSESAVDFQAESSASVKFESHLNTKHLFDNFVEGKSNQLARAVGQKLAQAPGEPSANPFFLYGGTGLGKTHLLHAIGNGILADKPNARVLYIHANNFMQHMVKAVRDNKMDQFKKFYRSLDALLVDDIQFFAEKEKTQEEFFHIFNSLFETGRQIILTSDRYPKEIEKIEERLKSRFGWGLTTAIEPPDLETRVAILLKKAEEHNMNLPEEVAFFIAQRLRTNVRELEGALNRVKAMQDFKGGDIDIDFVRDTLKDILALQERLVTIENIQKVVAEYYRIKVSDLKSKSRARSVTRPRQIAMALAKELTNRSLPEIGRAFDRDHTTVLNACREVPKFREQDNSIQEDWANLIRTLSALEHHHHHH”, the “soluble on expression in E. coli” value is “soluble”.

Regarding “MAHHHHHHMTTERPCGERNGHTHSSSAADGTFDQPDTAVLLYGGLPPMPKPSVQRGEGSMEREFDQAAVSPSPVAAVAASSVVGGDTSPGSSPHIGVHEADDPTKNFDNSTEEEHMDLFISAMSPQNCVDRPQRRARGALMPPLPSPGEADAGAMMQSEMHTTPMTKTHTPDLRVTMYENQELRRELATVRASLRQALQTIETRELECVELHRLVDEMQAQLNGLKPEANLRPTQTDAQGNGEGSTRPEKSAFKLQATKDTTGPQIIGKYESKEEWRMTPSRELFAAEVKHDAHTEASTTTAIAAVKMNATDAPTTVEETISMGQLCEERDRLAKELAQTKIVVAEQETVLDRLGLRFPYPGALVAAARRTIPAFEPLRKSRKQKPGPLVVDRTTQMRGERAERRE”, the “soluble on expression in E. coli” value was “not soluble”. As to “MLDFEKPLFEIRNKIDSLKESQEKNEVDLQDEIDMLEASLKRETTKVYTNLKPWDRVQIARLPERPTTLDYIPYIFDSFIELHGDRSFRDDPAMIGGIGYLDGKSVTVIGQQRGKDTKDNIYRNFGMAHPEGYRKALRLMKQAEKFNR”, the “soluble on expression in E. coli” value is listed as “not soluble”. As for “MKTIIRYFSFVMGLMLTLPSFAKEKISIMLDWYVNPDHAAIIVAQQKGFFEKNNLEVEIIEPADPALPPKLAAAEKVDLAVSYQPQLYQQVAEGLPLVRVGSLISNPLNSVVVLKKSNLKSLADLKGKKVGYSVSGFEDGLLDTMLHSIGLSNKDVELVNVNWSLSPSLLTGQVDAVIGAFRNFELNQLALEKQEGIAFFPEQYGVPAYDELILVANKNSVTDKKTSAFLTALEQATSYLQAHPNEAWQAFVSYKPNELNTPLNQLAWKDTLPFLANKPRQLDAKRYQQMAEFMQQKGLIPKALALKEYAVEIELEHHHHHH”, the entry is “soluble”; as for “MKANRWFGMAQPKSGKMNMNILHQEELIAQKKREIEARMEQKARQSHVPSPQPPHPGEIADAHNSCISNKFANDGSFLQQFLKLQKAQTSTDSAPRAPPSMPTPSSLKKPLVLSKRTGLGLSSPTGPVKNYSHAKQLPVAHRPSVFQSPDDDEEEDYEQWLEIKVSPPEGAETRRVIEKLARFVAEGGPELEKVAMEDYKDNPAFTFLHDKNSREFLYYRRKVAEIRKEAQKPQAATQKVSPPEDEEAKNLAEKLARFIADGGPEVETIALQNNRENQAFSFLYDPNSQGYRYYRQKLDEFRKAKAGSTGSFPAPAPNPSLRRKSAPEALSGAVPPITACPTPVAPAPAVNPTPSIPGKPTATAAVKRKRKSRWGPEEDKVEFHLLNWHRGT”, “soluble”; as for “MAGRRRWSTEQILDAAAELLLAGDAETFSVRKLAASLGTDSSSLYRHFRNKTELLRAVADRILLSAMDGYRPEGDWKQRLTAVALRLRESFGQQPQLAAVWGRHGSGGTGSRLMMEEVLQALRASGLPDDEIPARYHRLVILISSLITAEGGFGAVGAQEHEQGMEQFRVAVLGADPERFPALSHFAREIRPLGADRGAAFEEILAAHLAHLEAAAP”, “soluble”. The same measure for “MGSDKIHHHHHHMELQDKYIRFDWAVKRLLRHKANFGVLEGFLTVLIGDEIHIVEILESEGNQQTENDKFNRVDIKALNSKNEIVIIEIQNTRELYYLERILYGVAKAITEHISLGETYYKVKKIYSISILYFDIGHGTDYLYHGQNIFKGVHTGDFLQVSTREKDAIVPRMPSEIYPEYFLIRVNEFNKVAVTPLEEWIEYLKTGIIRPDTTAPGLGEAREKLKYYSMTPQERHAYDEHLSALMIQNDVLDSAKLEGKIEGKIEGKIEGRLEGRAEGREEGREEGIKEGVLRNARRMKEKGFSTEDIMEITGLTFEEVSQL”: “not soluble”. Regarding “AKQAAQSTFNSFHEWAKQAEAMRNPSRMDIYKIYKQDAPHSHPMSDEQQEEFLHTLKALNGKNGIEVRTQDHDSVRNKKDRNLDKYIAESPDAKRFFYRIIPKHERREDKNQGRLTIGVQPQYATQLTRAMATLIGKESAITHGKVIGPACHGQMTDSAVLYINGDVAKAEKLGEKLKQMSGIPLDAFVEHTPLSMQSLSKGLSYAESILGDTRGHGMSRAEVISDALRMDGMPFLARLKLSLSANGYDPDNPALRNTK”, the “soluble on expression in E. coli” value is reported as “soluble”. Regarding “MSNVIFSQKLYDTAQMVVDGCMGDADPACQTACPMHTDVKQYVRLAGEGNYQEALDLIRGKLFLPQTLGRICAHPCEAACRRNTEYNQPISVAGIKRFVAEKMDKQSNWDLTVANDSGKKIAIVGAGPAGAQAAIELRRSGHQVTIYEKLNVYGGMMRVGIPEYRLPRDVIDFEYGYLDMLGIETKFGIEIGKDISFNELRLSHDAIILAHGAHVGSIIPLPGHKAQGVFSAVEYLKEVSETRDFPRAGKRIMVIGGGDVAMDCARSSWRIGVDEVHQCSLEEMAKLPASQIEIDESLEEGVLFNAGWGPISIEETDGKVTGIVLKKVISIFDENGNFSPSYSDETRTIAVDTVIFATGQVVADITDGALEQTRGGRYVVDKDTLASSVDGVYVAGDACGGNIVVEAMALGHKAALSIERQFAKRPLTENRDFEKEYNYPSRLDIPLPKGTTDTPRLHGQLRDAEERKQDFKQVDLGFSEEQIKQEASRCLQCTCKLCMNECVMMNDFGDCPKTLFSDFINNKTMDPLLAYSCNACDQCTIVCPKDYPMKEMFLSARVDFVNANGGNSPIPGHKAINMHQKLGFSKFFTMAKRTVASKLEHHHHHH”, the “soluble on expression in E. coli” value is recorded as “not soluble”. In the case of “MAKVSLEKDRIKFLLVEGVHQSAVDNLRAAGYSNIEYHKGALDAESLKASIRDAHFIGIRSRTHLSEDVFAAAEKLVAVGCFCIGTNQVDLKAATKRGVPVFNAPFSNTRSVAEMVLGELLLMFRGIPSANAKAHRGEWNKLAVGSFEARGKKLGIIGYGHIGTQLGILAESIGMKVFFYDIENKLSLGNAQQVRQLSDLLNMSDVVSLHVPENHTTKNMIGAEQLAQMKPGALLINASRGTVVDIPALCDALSSNHLSGAAIDVFPEEPATNKDPFNSPLCEFDNVLLTPHIGGSTQEAQENIGDEVAGKLAKYSDNGSTLSAVNFPEVSLPAHGDNTRRLLHIHENRPGILTSINTIFAEQNVNIAAQYLQTSADIGYVVIDVETDDADNAEKALQAMKAIPGTIRARLLY”, the “soluble on expression in E. coli” value is “not soluble”. As for “GPGSMERAATQSQSIYSNANTNSSNVNTYGNTVSSYLSNNSPNAVMYGGGNSGNGGAPSSTSVATVYASPTQASPSQAIRQQAQGAAQQNMSQSQTSTSFNAYGGGAASGSGSGFFYSTPSAQAPGAQTMYSANPSAAAMFPMRGGSTSMTPAQPTPTQMLTPQANAAAAAAAVWTNAAANINAGSKLFVGQVPAVCTEDQLRPLFAQFGTLLEIKIMREPNGRSKGSAWVRYELEESAQRAITALNEKHVVPPQTNPLRVQFAAPSTNRIPQPLSALGSIMPPSAVMQPQPQPNYATAATYATPQGYAGTTTAYMQGQYATSPNLMAVRASPQQQAAVQSASGKIEYLRSNHPGSLIYSTASPTAVDAMQQQQQQQSPQQQQVVYTTGGQMRAGVMYTPDAFAMTNQMAAAPQQPHQWCS”, the entry is “soluble”.
